Patent US20160208003A1 (AFFITECH RESEARCH, published 2016)
Changes are numbered by the printed parent chain. Several values for one entry are separate records, joined by “and”; a condition that tells them apart may be missing. Equal entries are not always repeated. Values belong to the binder of their own block, whether it stands above or below them.

Tests used:
[1] = target: T1, human CC chemokine receptor 4 (CCR4) (human, UniProt P51679 1-360); experiment: flow cytometry competition on DT-40-CCR4+ cells; IgG titrated, competitor biotinylated TARC (ca. 20 nM)
T1 construct: whole, on cells; Always presented on cells; also called CD194; human CCR4
T1 sequence (looked up): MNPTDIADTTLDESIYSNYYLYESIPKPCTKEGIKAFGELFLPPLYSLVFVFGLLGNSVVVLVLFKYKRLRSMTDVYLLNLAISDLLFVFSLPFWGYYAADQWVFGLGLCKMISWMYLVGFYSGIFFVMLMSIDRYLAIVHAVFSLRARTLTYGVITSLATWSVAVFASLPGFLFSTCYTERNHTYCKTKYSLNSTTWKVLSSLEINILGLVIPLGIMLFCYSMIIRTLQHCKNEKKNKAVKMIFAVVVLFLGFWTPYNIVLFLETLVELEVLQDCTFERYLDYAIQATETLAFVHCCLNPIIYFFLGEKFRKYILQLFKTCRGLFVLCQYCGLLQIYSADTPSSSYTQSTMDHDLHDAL
Protocol: (§1) The competition binding assays were performed with biotinylated MDC or biotinylated TARC on DT-40-CCR4+ and CCRF-CEM cells. DT40 and CCRF-CEM cells were cultured as described in Example 2. TARC and MDC were biotinylated using standard procedures. The biotinylation process causes some losses, so the concentrations of biotinylated MDC and TARC recited herein are approximate.
(§2) The cells were harvested from culture flasks, washed 2 times with PBS (400×g, 5 min, 4° C.) and resuspended in PBS containing 0.2% BSA and 0.09% NaN3. 1×10^5 cells per well were aliquoted into V-shaped 96-well plates (Greiner Bio-One, Frikenhausen, Germany). Cells were centrifuged (400×g, 5 min, 4° C.) and resuspended in 50 μl IgG, single chain or unlabeled ligand (1:10 dilution series starting on 100/500/26, 4 μg/ml) mixed with a fixed concentration of biotinylated ligand (10 or 20 nM, see legend to FIG. 24). The cells were incubated for 2 hours at 4° C. and mixed with a pipette every 45 min. The cells were washed three times with 150 μl PBS with 0.2% BSA and 0.09% NaN3 and stained with 3 μg/ml streptavidin PE (BD Biosciences) for 45 minutes at 4° C. […] Apparent binding affinities (KD) were calculated according to the following equation derived from previously described methods (Kipriyanov et al, 1997b; Schodin & Kranz, 1993): […]

[2] = target: T1, human CC chemokine receptor 4 (CCR4); experiment: flow cytometry competition on CCRF-CEM cells; IgG titrated, competitor biotinylated MDC (ca. 10 or 20 nM); second of three IC50 values on CCRF-CEM cells; inhibition of biotinylated MDC
Protocol: as §1, §2

[3] = target: T1, human CC chemokine receptor 4 (CCR4); experiment: flow cytometry competition on DT-40-CCR4+ cells; IgG titrated, competitor biotinylated MDC (ca. 10 nM)
Protocol: as §1, §2

[4] = target: T1, human CC chemokine receptor 4 (CCR4); experiment: flow cytometry, IgG titration on CCRF-CEM cells (natural CCR4+), triplicates, RPE goat anti-human IgG, Median (YLW-HLog)
Description: As a positive control, in-house cloned and expressed KM3060var IgG which is specific for an epitope present in positions 2-29 in N-terminal part of human CCR4 (EP1270595) was used. An anti-GFP antibody (raised against the green fluorescent protein) or the anti-VZV antibody (raised against Varicella zoster virus) were used as negative controls (anti-GFP both as scFv and IgG, while anti-VZV only as scFv).
(§3) For the flow cytometry experiments, the cells were harvested from the culture flasks, washed 2 times with PBS, re-suspended in PBS with 0.2% BSA and 0.09% NaN₃ and finally aliquoted 1×10⁵ cells per well into V-shaped 96-well plates (Greiner Bio-One, Frickenhausen, Germany). Cells were centrifuged at 400×g for 5 min and then incubated at 4° C. for 45 min with different antibody dilutions.
(§4) After washing with PBS with 0.2% BSA and 0.09% NaN₃, the cells were stained with 10 μg/ml of RPE-conjugated goat anti-human IgG (AbDSerotec, Düsseldorf, Germany) for 30 minutes at 4° C. The stained cells were washed, re-suspended in 200 μl PBS with 0.2% BSA and 0.09% NaN₃ and transferred to a U-shaped 96-well plate (Corning, Schiphol-Rijk, The Netherlands) for acquisition on EasyCyte flow cytometer (Guava Technologies, Hayward, Calif., USA).

[5] = target: T1, human CC chemokine receptor 4 (CCR4); experiment: flow cytometry, IgG titration on CCR4+ HEK293T cells; one site-specific binding fit (Prism)
Protocol: The IgG forms of antibodies 17G, 9E and KM3060var using various CCR4⁺ cell types were used (see Example 2).
as §3, §4

[6] = target: T1, human CC chemokine receptor 4 (CCR4); experiment: competition flow cytometry on CCR4-transfected DT40 cells: unlabelled IgG against 7 nM biotinylated 9E IgG, streptavidin-RPE
Protocol: To analyze the epitope binding of anti-CCR4 antibodies 17G, 9E and KM3060var, competition experiments were performed using flow cytometry. The binding of biotinylated antibodies to CCR4 transfected DT40-cells was challenged in the presence of different concentrations of non-biotinylated anti-CCR4 antibodies. The CCR4⁺ DT40 cells were harvested from culture flasks, washed 2 times with PBS, re-suspended in PBS with 0.2% BSA and 0.09% NaN₃ and finally aliquoted 1×10⁵ cells per well into V-shaped 96-well plates (Greiner Bio-One, Frickenhausen, Germany). Cells were centrifuged at 400×g for 5 min and then incubated at 4° C. for 3-4 hours with fixed amounts of biotinylated IgG and different concentrations of non-biotinylated antibodies. After washing with PBS with 0.2% BSA and 0.09% NaN₃, the cells were stained with 2.5 μg/ml of Streptavidin—RPE (BD Pharmingen, San Diego, Calif., USA) for 30 minutes at 4° C. The stained cells were washed, re-suspended in 250 μl PBS with 0.2% BSA and 0.09% NaN₃ and transferred to a U-shaped 96-well plate (Corning, Schiphol-Rijk, The Netherlands) for acquisition on EasyCyte flow cytometer (Guava Technologies, Hayward, Calif., USA). The results shown in FIGS. 10 A, B and C illustrate that the 17G and 9E antibodies have epitopes that are identical or at least overlapping.

IC50 [1]: 0.26 nM and 0.4 nM | IC50 [2]: 6.28 nM | IC50 [3]: 0.76 nM
B1: 9E10J IgG (full length human IgG1, lambda) (antibody, V domains shown)
VH: QVQLVQSGAEVKKPGSSVKVSCKASGGTFSSYAISWVRQAPGQGLEWMGGIIPIFGTANYAQKFQGRVTMTRDTSTSTVYMELSSLRSEDTAVYYCARRGGSYFDYWGQGTLVTVSS
VL: SYVLTQPPSASGTPGQSVTISCSGSTSNIGSHYVFWYQQLPGTAPRLLIYRNHQRPSGVPDRLSGSKSGTSASLAISGLRSEDEADYYCAVWDDTLSGWVFGGGTKLTVLG
notes: also called IgG 9E10J; unmodified 9E10J

EC50 (read off the curve) [4]: ~0.4 nM | Kd [5]: 0.36 nM | IC50 (read off the curve) [6]: ~3 nM
B2: 9E IgG (full length human IgG1, lambda) (antibody, V domains shown)
VH: B1 VH with S31N, M70I, R72A, T74E, V79A
VL: B1 VL
notes: also called IgG 9E; IgG1 9E
